Results from article PMC5815094.

Legend:
Conditions in all cases: ES buffer: 10 mM Tris pH 8.0, 10 mM KCl, 40 mM NaCl, 1 mM MgCl2; MST + 0.05% Tween-20, room temperature; EMSA + 25 ng tRNA per 10 ul, 37 C 15 min (Fig 6D); NMR …
[1] = biological target: Hfq (Pseudomonas aeruginosa PAO1) (UniProt Q9HUM0); experiment: MST
[2] = biological target: Hfq;Crc (Pseudomonas aeruginosa PAO1;Pseudomonas aeruginosa PAO1) (UniProt Q9HUM0+Q51380); experiment: MST
[3] = biological target: Hfq (Pseudomonas aeruginosa PAO1) (UniProt Q9HUM0); experiment: EMSA

| Substance | Kd [1] [nM] | Kd [2] [nM] | binding [3] |
| --- | --- | --- | --- |
| PrrF2 sRNA | 6.7 | 35 | – |
| GGACUGGUCGCGAGGCCAGCAGGUAAGCUGAGAGACCAAGCAGUCGGACUCUUCAGAUUAUCUCCUCAUCAGGCUAAUCACGGUUUCGACCCGGCACUUUGCCGGGUCUUUUUUUG [PrrF2 sRNA] | – | – | binds |
